The results in this text go back to PMC3715477.

The target of the test is CC-Gp047 (residues 1040–1365 of Gp047, putative receptor binding protein of C. jejuni phage NCTC12673) (Campylobacter jejuni phage NCTC12673). The experiment in a line: SDS-resistant oligomers (method not named; data not shown); data not shown; oligomers called SDS-resistant; construct and conditions not told.

Usually stoichiometry N stands for the number of molecules, sites or subunits per partner or assembly. For “CC-Gp047 (residues 1040–1365 of Gp047, putative receptor binding protein of C. jejuni phage NCTC12673) (domain or fragment)”, the stoichiometry N is over 3.
